According to US20040043378A1:
Each block holds one binder with its values, some of them ahead of it.

Assays:
[1] = target: lysine-acetylated histone H4 peptide SGRGKGG-AcK-GLGK (Lys8 acetylated); test: NMR titration, amide chemical shift changes in 15N-HSQC spectra against ligand concentration
[2] = target: histone H4 AcK16 peptide …-AcK-RHRK (SEQ ID NO:59); test: NMR 2D 1H-15N HSQC titration; 'binds weakly'
histone H4 AcK16 peptide …-AcK-RHRK (SEQ ID NO:59), sequence (peptide, as listed by the source): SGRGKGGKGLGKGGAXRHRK

- Kd [1]: 346 µM
B1: P/CAF bromodomain (residues 719-832 of human p300/CBP-associated factor), wild-type, Q92831 719-832 (protein)
chain: SKEPRDPDQLYSTLKSILQQVKSHQSAWPFMEPVKRTEAPGYYEVIRFPMDLKTMSERLKNRYYVSKKLFMADLQRVFTNCKEYNAAESEYYKCANILEKFFFSKIKEAGLIDK

- Kd [2]: < 300 µM
B2: bromodomain of P/CAF (residues 719-832 of SEQ ID NO:2), Q92831 719-832 (protein)
chain: B1 chain
